These results are taken from the DeepSol protein solubility set.

This data set in a line: soluble on expression in E. coli; label from the status in PepcDB or PDB records.
For “MNSFKTRDVQVAVEAVEKEKIEFIPLRRTLRYLIVGIDPGATTAIAALDLRGELVDMKSRKGWSPAEVIEFISSLGKPVVVSTDKSSPPEFVSKIRASFNAVLYTPKEDMSVEKKRILTSKYSTSNDLEHHHHHH”, the “soluble on expression in E. coli” value is “not soluble”. With “GPGSMGAVKFQLYKTLGVPMKSSIKDITRAYRHLALKYHPDRNPEGVEKFKSISNAYAVLSDPERRAAYDLTGFLSDSADSSHAMSDEAARQQRSAELADQVRTFFATYAGSAEERLDVVRGYEKCRGDFKKMVREYLLFDNGVEAEVQRLHRLVSTLIELGNLSPTPAWKSTSTPEALLRLEKAMHRERQEAENVLKDMAGSGTGAAGAADGDLSSLQVMIRQRQQSSYESMLNHLESKYVTKKSNARESSKRTREAAPTARKDECASKKHRKASHHR” the entry was “soluble”; with “IYAYVPLRTPENTGHLALLDGQLELAYQPIVEVAGSDTAQYQVLLRLRKADGNLLSAGLVIPAAEAAGRIMELDQQVIEQALDILKLHQDTNQQLRLFVSQSVRTLIHEGFSDWIIKNLRERNVNGTGLVIDLRLQDAVIHAIPLKQLCKELLKHNVKFCLSQFESNSEATVLFSELPLNFVRLSQHFGDAHNHPERQKELPLLIEQAHEHNLHVIGQCIEDAQAATFMWMNGVDLIQGNLFQNV”, “not soluble”; with “MGSDKIHHHHHHMKDKVVVSQLGARMHYAVPRIFASAGRLAHFYTDICATKGWPRIVNSFPATLYPAPVKRLAGRLPKGVPTALTTVFSNFGLRSVLRHMRAKDVVEETSHAIWAGSIFSEMVARRGFHGAAGLYAFSGDALEQMQAAKQQGLWTAVEQMIAPRDVVEMLLNQEMKRFPAWAGPVQENPHARLFAEREKAEWRLADVIVCPSEFVRKNVVACGGPEDRCVVVPYGVNAAVANNRPARMPGPIRVLTVGEVGLRKGSPYVVEASRLMEGSARFRMAGRVRLADDVKQQISQWVELRGIVPRSQIAEEFRWADVFLLPSLCEGSATAVYEALAAGLPVITTENTGSVVRDGIEGFIVPVCDPEAIATAVRALAGNPELMRSMSANALLRAAEHTVESYGERLLAVLSGPHLAGSVGLCQTEEARYLGNNTI”, “not soluble”. With “MGSDKIHHHHHHMEQCNERPKVSVIIPVYNTCNYVQEALESICQQTLEELEIIVIDDGSTDCSRAIVEEIAIKDTRIQVYKQSNQGLSITRNQGLKFSTGEYIYFMDSDDFLEPDALELCYRKCTKEALDFVFFDAETFTIEPNIPESSFDYQRTLDLPEKICSGIDMLKTQLKTYKFKSSVCLNLFHREFICEERLSFYPGILHEDQLFMIQAYLHASKTGFIRRSFFHRRIRTNSIMTKKFTWKNMEGYLTVTNELLRELPIYPKTYHHTIFFFLRQMLDAAVWQAHTLSLPQRIKLFSLCLKYYRPYVTMRTLMVLLLKTSIHPRQ” the entry was “not soluble”; with “MSEGPKKAGVLGSPIAHSRSPQLHLAAYRALGLHDWTYERIECGAAELPVVVGGFGPEWVGVSVTMPGKFAALRFADERTARADLVGSANTLVRTPHGWRADNTDIDGVAGALGAAAGHALVLGSGGTAPAAVVGLAELGVTDITVVARNSDKAARLVDLGTRVGVATRFCAFDSGGLADAVAAAEVLVSTIPAEVAAGYAGTLAAIPVLLDAIYDPWPTPLAAAVGSAGGRVISGLQMLLHQAFAQVEQFTGLPAPREAMTCALAALD”, “not soluble”. The result for “MIIKDILRENQDFRFRDLSDLKHSPKLCIITCMDSRLIDLLERALGIGRGDAKVIKNAGNIVDDGVIRSAAVAIYALGDNEIIIVGHTDCGMARLDEDLIVSRMRELGVEEEVIENFSIDVLNPVGDEEENVIEGVKRLKSSPLIPESIGVHGLIIDINTGRLKPLYLDE” reads “soluble”. For the sequence “MTEMKILIVTLTYIEKSIIDEIVNNLSSYGLEVDILLDSRKYLPISAFNWERLQYDAEKVLSFLKSIHDFNYDSIIFLADSDGYIDGYNFVFGLTIDNFAIIFLHRLREEFYNRKPDLDLFMKRVVKEVTHEVGHTLGLSHCNTTGCVMNFSNSVEDVDKKQAKFCKNCAHKIEKLSKYLQQKLEHHHHHH”, the “soluble on expression in E. coli” value was “not soluble”. The result for “MLRIYAPASSANISVGFDTLGAAISPIDGSLLGDVVQIESISTGFELESAGYFVRKLPKEPQKNIVYQAYVLFSEQLKLRGANVKPLRLTLEKNMPIGSGLGSSACSIVAALVALNQFHNEPFSKMELLEMMGELEGRISGSIHYDNVAPCYLGGVQFMVQS” reads “not soluble”; that for “MKDTFRLENQTIYFGTERAISASPQTIWRYLTETDKLKQWFPELEIGELGVNGFWRFILPDFEETMPFTDYAEEKYLGVTWDTGIIYFDLKEQAPHQTLLVFSESLPENFTTPRHKDIAGWSIVLNRLKQVVETPDAAPEKIDFPQIENHYLEKLTNLEN”, “soluble”. The result for “MMEKPEGLKLIDENGRRIDGRKKYELRPIKMKVGVLKNANGSAYIEWGRNKIIAAVYGPRELHSKHLQRPDRAILRVRYNMAPFSVEERKKPGPDRRSIEISKVIKGALEPALILEMFPRTSIDVFIEVLQADAGTRVAGITAASLALADAGIPMRDLVAACAAGKIEGEIVLDLNKEEDNYGEADVPVAIMPLKNDITLLQMDGYLTKEEFIEAVRLAIKGAKAVYQKQREALKEKYLKIAQEVEESE” reads “soluble”. As for “MDKILGIKFRDYGQVYYFLAGEAEVSLGDRVIVETDQGQGIGEVIAVRDDRPSDAGDEELQPILRVAEGEDLERAETNEAMGAEAAAYCRECIRARNLDMKLVDVEVFFDLSKLIFYFTAPSRIDFRELVKDLVKHYRTRIELRQIGVRHETQMIGAVGNCGMVCCCRRYLRKFAPVTIKMAKEQNLFLNPAKISGICGRLLCCLSYEQENYEEFHRSCPRLGKKYMTNRGPVKVLRANMFRNSLMAFTDTGEEIEISLDEWQQLDPRRPDQQPQQARPPRRDRPEGGSARDGNGDRAPAPSSDRAAGATGGEAARHGGGRAGERSDRGGRPDRAERADRRGMPHGDVPGSGETPPAGGEAEADAPSLHAAGVEFATEQPAPFDTSPDGGAVMGMEQVEALEHHHHHH”, the “soluble on expression in E. coli” value is “not soluble”. Take “GPLGSHENCQSPSMKRSRCTNYSFRTLTLSTAEYTKVVEFLAREAKVPRYTWVPTQVVSHILPTEGLERFLTAIKAGHDSVLFNANGIYTMGDMIREFEKHNDIFERIGIDSSKLSKYYEAFLSFYRIQEAMKLPK”: the “soluble on expression in E. coli” value is listed as “soluble”. The result for “MGSDKIHHHHHHMNLDHLRYFVALSRTENYTQTAKLLHITQPSLTKAIHSLEAELNIDLFQKAGRSVTLTPAGKVFASDVESALLLLDKSVTNIKRFDQQKAPIRIAALRTLSIKWLPDIAQRFLQLSPHAAVQFQFNTDTGLSPDILNGLRNNKYDVAFCSKMDHFSDIEFFPVAEQTMVCITPTTHPLANRSSINLAETLAYPQITFSQRSGLHPIMQKLFNDCGGQPISAYAVEEDQAIAGLVASGFGIAVVPNMSILQTMPVKIIPLSFPTWQRILYMGTLKHRTPQPAVEEFITFVRDQSKTLSVNNI” reads “not soluble”; that for “MGSDKIHHHHHHMKSHIGLIGLAVMGQNLALNIARKGYKVSVYNRTAQRTEEFVKNRVTNEEIEPHYDIESFVKSLERPRKIILMVKAGKPVDDTISQLLPHLEPGDLIIDGGNSHYMDTERRFKELSEKGILFLGMGVSGGEYGALHGPSLMPGGSREAYNLVEEILLEIAAKTEDGPCCTYVGERSAGHFVKMVHNGIEYAIMQAIAEVYHIMRDVLSLSSEEMSSIFEEWNRGELSSFLVEITYKILRKKDEETGKPMVDVILDKAEQKGTGKWTSQAALDLGIPTPSINLAVVERVISHFKDIRTRLSKLYNKRRSATQGSEEFLRDLRNSLFFAMFMAFSQGMWLIAEASKEFGYGVSLSEVLRIWKGGCIIRAKLIDTLRRYISNENAYLLENEEVMNLLKGKIDSLKNILKASIENEIPVPVLSSSYNYFMSLTEERLPANLIQAQRDFFGAHTFERVDREGVFHINWEEGEIG”, “not soluble”. The result for “YLLGAFKPACNISITFSDGKNRKQVPMKKENGQTALVPLFHSQDTISGKVCIEPYQGKKVEHNGVKVELLGQIANYSYDSFLLLTTVRELDVPGEIYERKTYPFEFPTVEMPYETYNGVNVRLRYVLKVTVTRGYAGSILEYQELVRNYAPLPDINNSIKMEVGIEDCLHIEFEYNKSKYHLKDVILGKIYFLLVRIKMKNMDLEIRRRESTGAGANTHVETETLAKFELMDGTPVRGESIPVRLFLAPYDLTPTHRNINNKFSVKYYLNLVLVDEEDRRYFKQQEITLYRLKEDASS” reads “soluble”; that for “MSQIMYNYPAMLGHAGDMAGYAGTLQSLGAEIAVEQAALQSAWQGDTGITYQAWQAQWNQAMEDLVRAYHAMSSTHEANTMAMMARDTAEAAKWGG”, “not soluble”; that for “MAISGVTLEESVRGAIDDLRMKKSRYVMMCIGADGKKIEVTEVGERSVNYTDLKEKFSTEKPCYVAFDFEYNDAGSKREKLILIQWIPDTARPREKMMYSASRDALSSVSEGYLPIQANDESGLDAEEIIRKVRLHRSVAAALE”, “soluble”.

Regarding “GGGPFIVVAHSQGSMIAYHVLRQLKKADCDVRLFITIGSPLGIQEAQDVLGKIGSGKPLAVPECVDRWLNVAERLDPVALDSDLGNDYQPNSHGVKIENHAGLMINPEWASNPHSGTGYLSLDIVRQAVRETAGPTFSNPVGRNILMKDLVDNIEDGHREQRHPTLIQLVSDDDDATSLDEVRDRLSNLIKNVL”, the “soluble on expression in E. coli” value is “not soluble”. The result for “MGSDKIHHHHHHAADKRIDGNGNPETREIKISDYDEITFVGSADFEYEQSDKAPYLSVTIDENLFDYLVTEVEGGTLKIYPKSIKKGFNNNSYDLRPTVYKIKSNSKELKELNTVGSGSFIISKPTKVNRMEINMAGSGNVELRGPVKGYKLECNMAGSGNIIAKDIQLDNLSCSLASSGEIEVIGTVDRASFNVAGSGEIKAFDCQARKAECNIASSGEISVYATQILDANIVGSGEIHYKGDPEISKSIMGSGSINKVK” reads “not soluble”; that for “AHHHHHHSSGLEVLFQGPNELNYGQLSISPIFQGGSYQLNNKSIDISSLLLDKLSGESQTVVMKFKADKPNSLQALFGLSNSKAGFKNNYFSIFMRDSGEIGVEIRDAQKGINYLFSRPASLWGKHKGQAVENTLVFVSDSKDKTYTMYVNGIEVFSETVDTFLPISNINGIDKATLGAVNREGKEHYLAKGSIDEISLFNKAISDQEVSTIPLSNPFQLIFQSGDSTQANYFRIPTLYTLSSGRVLSSIDARYGGTHDSKSKINIATSYSDDNGKTWSEPIFAMKFNDYEEQLVYWPRDNKLKNSQISGSASFIDSSIVEDKKSGKTILLADVMPAGIGNNNANKADSGFKEINGHYYLKLKKNGDNDFRYTVRENGVVYNETTNKPTNYTINDKYEVLEGGKSLTVEQYSVDFDSGSLRERHNGKQVPMNVFYKDSLFKVTPTNYIAMTTSQNRGESWEQFKLLPPFLGEKHNGTYLCPGQGLALKSSNRLIFATYTSGELTYLISDDSGQTWKKSSASIPFKNATAEAQMVELRDGVIRTFFRTTTGKIAYMTSRDSGETWSKVSYIDGIQQTSYGTQVSAIKYSQLIDGKEAVILSTPNSRSGRKGGQLVVGLVNKEDDSIDWKYHYDIDLPSYGYAYSAITELPNHHIGVLFEKYDSWSRNELHLSNVVQYIDLEINDLTK”, “soluble”. With “MQDLSGFTVPKGFRGANALKVQLWWAVQATLFAGSPQILYRWRAFLLRLFGAKIGKNVVIRPSVKITYPWKLTVGDYAWVGDDAVLYTLGEINIGAHAVISQKGYLCTGSHDYTSAHFDINAAPIVIGEKCWLATDVFVAPGVTIGHGTVVGARSSVFKSLPANAICRGNPAVVTRQRVQKVTP” the entry was “not soluble”.
